Reference: patent US9487562B2, “Stabilized polypeptides as regulators of RAB GTPase function” (President and Fellows of Harvard College, priority 2011, dated 2016)
“Also recorded” adds a separate entry of the source. Bridge positions count the residues as written; N and C are the ends. Square brackets hold non-standard residues; d marks the D form. Ends that are not written are not given here. S5 = C=CCCC[C@](C)(N)C(=O)O

Key:
RAB11 [1] = target: T1, RAB11 (Homo sapiens, UniProt P62491); assay: Fluorescence polarization binding of FITC-FIP/FITC-RFP peptides to RAB11; conditions: FITC peptide 15 nM, fluorescence polarization
T1 construct: RAB11 (residues 1-175) was expressed with an N-terminal GST-tag with an internal thrombin cleavage site; GST (thrombin cleavage site between tag and RAB11) (N); made in house; host or cells: Escherichia coli BL21(DE3) pLysS
T1 sequence (P62491 1-175): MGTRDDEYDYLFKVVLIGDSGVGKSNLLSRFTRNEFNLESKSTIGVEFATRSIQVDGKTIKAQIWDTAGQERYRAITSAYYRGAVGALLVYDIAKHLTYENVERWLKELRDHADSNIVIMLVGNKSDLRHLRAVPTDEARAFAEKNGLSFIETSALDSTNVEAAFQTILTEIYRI
Protocol: Fluorescence polarization (FP) was used to measure FIP peptide binding to RAB11 and RAB25 proteins. […] This indicated specificity in the binding measurement, as this subtle change would be expected to perturb binding.
(§1) RAB11/25 protein binding assays were performed by incubating FITC-FIP or FITC-RFP (stapled FIP derivatives) peptides (15 nM) with three-fold dilutions of recombinantly-expressed, purified RAB11, RAB25 or a various epitope-tagged version of either in protein-binding buffer (25 mM Tris-HCl, pH 8.0, 150 mM NaCl, 1 mM EDTA, 1 mM DTT, 10 mM MgCl2, 10 mM GTP). Dilutions and incubations were made in 384-well, black flat-bottom plates (Corning) to a total volume of 40 μL and equilibrated for 60 minutes. Polarization was measured on a Spectramax-M5 multi-label plate reader with λex=485 nm and λem=525 nm. Polarization was calculated according to the standard equation: P=(V−H)/(V+H), where P=polarization, V=vertical emission intensity and H=horizontal emission intensity. Kd values were determined by fitting data to a variable-slope sigmoidal binding curve using Prizm 4 graphing software.
(§2) RAB11 and RAB25 proteins were expressed and purified in Escherichia coli strain BL21(DE3) pLysS (Stratagene) as epitope-tagged fusion proteins in various vectors (Novagen). RAB25 (residues E7-Q180) was expressed with an N-terminal GST- and hexahistidine tag with internal thrombin and TEV cleavage sites (GST-H6-RAB25) (SEQ ID NO: 86) in a pET41-1 vector (Novagen) or with an N-terminal hexahistidine tag alone with an internal thrombin cleavage site (H6-RAB25) (SEQ ID NO: 86) in a pET28 vector (Novagen). FIP3 protein (residues 649-756) was expressed with an N-terminal GST-tag with an internal TEV cleavage site (GST-FIP3) in a pGEX6p-1 vector (Novagen). RAB11 (residues 1-175) was expressed with an N-terminal GST-tag with an internal thrombin cleavage site in a pGEX5x-1 vector (Novagen). Transformed bacteria was grown at 37° C. until an OD600=0.8 was reached, at which point the culture was induced with 0.5 mM isopropyl β-D-1-thiogalactopyranoside (IPTG). Induced cells were grown at 30° C. for 6 hours, pelleted and lysed in binding buffer (25 mM Tris-HC;, pH 8.0, 150 mM NaCl, 1 mM EDTA, 1 mM DTT, 10 mM MgCl2, 10 mM GTP) supplemented with a complete protease inhibitor tablet (Roche) by sonication on ice. The lysate was centrifuged at 14,000 rpm to clear insoluble matter prior to loading onto Ni-NTA resin (Qiagen) for hexahistdine-tagged constructs or on GST-bind agarose resin (Biorad) for GST-tagged constructs. The protein-bound bead slurry was washed 4× with ˜20 mL of buffer and retained protein was eluted with either 250 mM imidazole or 20 mM glutathione in buffer for H6-(SEQ ID NO: 86) or GST-proteins, respectively. The eluent was concentrated using a 30 kD exclusion filter and purified by size-exclusion chromatography on a Superdex-75 Column (Amersham Pharmacia Biotech). Fractions containing purified protein were pooled, concentrated and dialyzed into binding buffer or other similar buffer for specific biochemical assays.

U2OS osteosarcoma cells = assay: Quantitative epifluorescence microscopy of cell penetration; type: cell-based; conditions: 5 μM FITC-RFPs for 12 hours, DMEM 10% FBS
Protocol: U2OS osteosarcoma cells were treated with 5 μM FITC-RFPs for 12 hours in Dulbecco's Modified Eagle Medium (DMEM) (Gibco®) containing 10% fetal bovine serum (FBS). Cells were washed, then stained with Hoescht nuclear dye. Automated fluorescence microscopy was performed at 20× on an IX5000 epifluorescence microscope. Nuclear staining is shown in the top panel and FITC is show in the bottom panel (FIGS. 16 and 17B). Quantification was performed using MetaXpress software (FIG. 18A).

RAB25 [2] = target: T2, RAB25 (Homo sapiens, UniProt P57735); assay: Fluorescence polarization binding of FITC-FIP/FITC-RFP peptides to RAB25; conditions: FITC peptide 15 nM
T2 construct: RAB25 (residues E7-Q180) was expressed with an N-terminal GST- and hexahistidine tag; made in house; host or cells: Escherichia coli BL21(DE3) pLysS
T2 sequence (P57735 7-180): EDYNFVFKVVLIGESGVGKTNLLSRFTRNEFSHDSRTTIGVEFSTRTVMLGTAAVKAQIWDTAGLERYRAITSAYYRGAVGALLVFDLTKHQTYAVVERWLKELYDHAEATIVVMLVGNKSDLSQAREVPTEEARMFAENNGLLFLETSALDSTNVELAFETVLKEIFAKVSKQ
Protocol: as §1, §2

[3] = Peptide thermal stability by CD at 222 nm; type: physicochemical; conditions: CD at 222 nm over 10-90° C.
Protocol: Peptide thermal stability was measured by scanning the peptide CD at 222 nm over a temperature range (10-90° C.). A sigmoidal unfolding curve was apparent for helices of unmodified FIP peptides (FIP4) with a Tm of ˜34° C. (FIG. 12A).
Peptide thermal stability experiments were performed in a similar manner to circular dichroism experiments in Example 5. Peptide solutions were cooled to 10° C. in a temperature controlled CD-chamber and circular dichroism absorbance at 222 nm was measured at 1 degree intervals while the solution was heated to 90° C. 222 nm CD values were plotted as a function of temperature and fitted to a sigmoidal denaturation curve, with the half-maximal temperature representing the Tm.

[4] = Circular dichroism spectra / percent helicity; type: physicochemical; conditions: calculated from the absorbance at 222 nm
Protocol: We next investigated the structural stability of the RFPs by obtaining circular dichroism (CD) spectra for each peptide. All measurements were made at 20° C. in water with peptides at 50 μM. […] By comparison, stapled FIP peptides (RFPs) show helical CD spectra indicated by minima at approximately 208 and 222 nm (FIG. 11B).
A circular dichroism spectrometer (Jasco J-710, Japan) was used to determine the α-helical content of all peptides. Peptides were dissolved in water to a final concentration of 50 μM in a quartz cuvette with a path length of 1 cm. Absorbance values were taken at 1 nm intervals between 190 and 260 nm for buffer alone and for peptide solutions. The background (buffer) spectrum was subtracted from experimental spectra, which were subsequently subjected to baseline-normalization and curve-smoothing within the spectrometer software. Percent-helicity was calculated from the absorbance at 222 nm using helical models as previously reported in Chen Y H et al., Biochemistry, 13, 3350-9 (1974).

[5] = system: AKT phosphorylated at S473 (p473-AKT); assay: AKT phosphorylation at S473 in OVCAR3 cells (Western blot); type: cell-based, Human; design: dose or concentration left out as unconfirmed; conditions: OVCAR3 cells treated with RFP26 for 24 hours
Source text: AKT, also known as Protein Kinase B (PKB), is a serine/threonine-specific protein kinase that is associated with tumor cell survival, proliferation, and invasiveness. The activation of AKT is also one of the most frequent alterations observed in human cancer and tumor cells, thus deregulation of the AKT plays a pivotal role in tumor biology (Stuenaes et al., Br. J. Pharmacol. (2010) 160(1):116-29). Full AKT activation requires phosphorylation by activating kinases on two residues: threonine 308 (T308) and serine 473 (S473). Hyperactivation of AKT is associated with resistance to apoptosis as well as increased cell proliferation and metabolism. […] To assess the affect of RFP26 on AKT phosphorylation in OVCAR3 cells, OVCAR3 cells were treated with […] RFP26 for 24 hours. The cells were then lysed, and the lysate was used in a Western blot to detect AKT phosphorylated at S473 (p473-AKT) and total AKT (FIG. 25A).

RAB11 [6] = target: T3, RAB11 (Homo sapiens, UniProt P62491); assay: Biotin-RFP pulldown from OVCAR3 lysate, Western blot for RAB11; type: binding; conditions: relative to mock or negative control RFP31
T3 construct: incubated in pre-cleared lysate from OVCAR3 cells, which express RAB11 and RAB25; endogenous in cells; host or cells: OVCAR3
T3 sequence (P62491 1-216): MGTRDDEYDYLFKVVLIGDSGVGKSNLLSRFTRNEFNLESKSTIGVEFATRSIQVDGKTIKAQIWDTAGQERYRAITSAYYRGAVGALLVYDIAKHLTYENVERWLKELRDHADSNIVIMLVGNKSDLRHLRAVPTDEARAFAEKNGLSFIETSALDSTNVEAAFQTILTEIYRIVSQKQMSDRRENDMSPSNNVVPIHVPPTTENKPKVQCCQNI
Protocol: (§3) Optimized RFP peptides were synthesized with an amino-terminal diethyleneglycol-biotin moiety. The peptides were immobilized on streptavidin-agarose resin/beads and incubated in pre-cleared lysate from OVCAR3 cells, which express RAB11 and RAB25. The beads were washed, and the protein was eluted and used for Western blot analysis to identify retained RAB11 and RAB25 (FIG. 24). […] The signal is similar to the relative binding affinities and ALPHASCREEN® IC50 observed for RFP peptides.

RAB25 [7] = target: T4, RAB25 (Homo sapiens, UniProt P57735); assay: Biotin-RFP pulldown from OVCAR3 lysate, Western blot for RAB25; type: binding; conditions: relative to mock or negative control RFP31
T4 construct: incubated in pre-cleared lysate from OVCAR3 cells, which express RAB11 and RAB25; endogenous in cells; host or cells: OVCAR3
T4 sequence (P57735 1-213): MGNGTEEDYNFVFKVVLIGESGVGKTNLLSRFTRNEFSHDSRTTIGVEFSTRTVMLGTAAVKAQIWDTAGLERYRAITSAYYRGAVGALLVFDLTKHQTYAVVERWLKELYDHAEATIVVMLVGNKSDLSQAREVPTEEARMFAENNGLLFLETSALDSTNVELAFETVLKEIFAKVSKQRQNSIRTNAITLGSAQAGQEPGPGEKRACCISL
Protocol: as §3

OVCAR3 cells = assay: Transwell migration assay; type: cell-based, Human; conditions: 15 μM for 24 hours, collagen-coated 8-micron transwells
Protocol: OVCAR3 cells were seeded on collagen-coated, 8-micron transwells in DMEM media. Cells were treated with 15 μM RFP26, RFP31 or vehicle for 24 hours during cell migration. The cells in the wells were fixed, and migrating cells were stained and counted (FIGS. 25B and 25C).

RAB25 [8] = assay: Fluorescence polarization binding of FITC-FIP/FITC-RFP peptides to RAB25
Protocol: as §1, §2

| binding affinity to RAB11 (RAB11 [1]) | binding to and retention of RAB11 (RAB11 [6]) | binding to and retention of RAB25 (RAB25 [7]) | relative affinity RAB11 versus RAB25 (selectivity) (RAB25 [8]) | Substance | cell penetration (U2OS osteosarcoma cells) | binding affinity to RAB25 (RAB25 [2]) | Tm [3] | theoretical percent helicity [4] | AKT phosphorylation at S473 [5] | OVCAR3 cellular migration (OVCAR3 cells) |
| --- | --- | --- | --- | --- | --- | --- | --- | --- | --- | --- |
| highest binding affinity |  |  |  | RFP14: stapled FIP peptide, SEQ ID NO: 75 (RQVRELENYIDRLLV[S5]VNE[S5]TPNILRIPR; staple 16-20; not fully specified (C-terminus)) | lowest cell penetration | highest binding affinity | 64 °C | highest helical content |  |  |
| high affinity | significant binding to and retention | significant binding to and retention | some selectivity for RAB25 | RFP26: stapled FIP peptide containing an E-R mutation to increase overall charge, SEQ ID NO: 83 (RINFRLQN[S5]IDR[S5]IVRINETNPSILRVK; staple 9-13; not fully specified (C-terminus)) |  | retained binding affinity; also recorded: high affinity |  |  | decreased AKT phosphorylation at S473 | inhibited OVCAR3 cellular migration |
